7 molecules from EP4786492A1 (Simcere Zaiming Pharmaceutical Co., Ltd., dated 2026) can be followed below.

Assay [1] concerns the target T1, monkey DLL3 on CHO K1-cyno DLL3 cells (cynomolgus monkey).
T1 construct: also called monkey DLL3 recombinant cell line
T1 chain: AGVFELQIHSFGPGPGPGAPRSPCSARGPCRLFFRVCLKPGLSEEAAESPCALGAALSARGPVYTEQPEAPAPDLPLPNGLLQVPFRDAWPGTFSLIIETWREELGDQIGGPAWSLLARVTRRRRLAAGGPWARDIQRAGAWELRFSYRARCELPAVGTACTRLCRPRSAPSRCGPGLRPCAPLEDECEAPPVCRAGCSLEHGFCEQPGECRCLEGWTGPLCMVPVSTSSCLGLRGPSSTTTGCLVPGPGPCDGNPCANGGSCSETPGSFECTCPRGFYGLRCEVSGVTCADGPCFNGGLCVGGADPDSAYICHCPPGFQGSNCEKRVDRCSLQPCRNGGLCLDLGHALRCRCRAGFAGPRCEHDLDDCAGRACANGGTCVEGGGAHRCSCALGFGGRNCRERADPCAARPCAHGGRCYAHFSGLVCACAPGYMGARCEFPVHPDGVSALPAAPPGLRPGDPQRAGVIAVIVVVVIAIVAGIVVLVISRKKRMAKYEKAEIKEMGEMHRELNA
Nature of the assay: FACS, CHO K1-cyno DLL3 cells.

The target in a further assay is T2, human DLL3-his protein (human, UniProt Q9NYJ7 27-492).
T2 construct: also called human DLL3 protein; DLL3 antigen protein; not shown: His tag
T2 sequence: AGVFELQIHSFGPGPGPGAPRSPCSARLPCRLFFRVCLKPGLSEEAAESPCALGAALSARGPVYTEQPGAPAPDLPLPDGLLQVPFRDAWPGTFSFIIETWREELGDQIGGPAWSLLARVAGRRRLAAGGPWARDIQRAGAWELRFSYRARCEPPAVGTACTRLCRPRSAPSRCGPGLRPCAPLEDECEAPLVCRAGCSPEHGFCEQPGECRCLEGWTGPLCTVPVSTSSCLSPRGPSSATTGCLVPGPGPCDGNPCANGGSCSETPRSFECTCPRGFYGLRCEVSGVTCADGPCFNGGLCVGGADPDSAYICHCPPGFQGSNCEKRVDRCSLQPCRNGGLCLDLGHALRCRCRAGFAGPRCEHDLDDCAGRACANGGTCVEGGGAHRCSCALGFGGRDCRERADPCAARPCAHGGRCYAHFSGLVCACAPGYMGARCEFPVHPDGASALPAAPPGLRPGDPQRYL
Nature of the assay: ELISA. On the technique in general: ELISA stands for enzyme-linked immunosorbent assay.

The target of the next assay is T3, human DLL4 protein (human, UniProt Q9NR61 27-524, limits assumed).
T3 construct: bought protein; construct and tag not described; also called hDLL4
T3 sequence (Q9NR61 27-524 limits assumed): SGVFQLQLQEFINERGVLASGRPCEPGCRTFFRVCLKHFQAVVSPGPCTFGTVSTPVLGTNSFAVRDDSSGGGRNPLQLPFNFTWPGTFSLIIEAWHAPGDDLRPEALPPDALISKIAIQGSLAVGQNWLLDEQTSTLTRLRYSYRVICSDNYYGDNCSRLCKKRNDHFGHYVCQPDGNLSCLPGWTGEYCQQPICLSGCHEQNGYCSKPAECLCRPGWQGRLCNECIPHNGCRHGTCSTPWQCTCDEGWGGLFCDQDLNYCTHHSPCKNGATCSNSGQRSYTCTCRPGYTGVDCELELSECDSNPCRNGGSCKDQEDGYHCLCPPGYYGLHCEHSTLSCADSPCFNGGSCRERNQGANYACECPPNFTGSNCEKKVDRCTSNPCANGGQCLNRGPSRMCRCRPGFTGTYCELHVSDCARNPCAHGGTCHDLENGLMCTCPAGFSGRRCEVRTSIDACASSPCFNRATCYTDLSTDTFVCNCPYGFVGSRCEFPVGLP
Nature of the assay: ELISA, maximum over 0.1-100 nM.

In a further assay the target is T4, human DLL1 protein (human, UniProt O00548 18-540, limits assumed).
T4 construct: bought protein; construct and tag not described; also called hDLL1
T4 sequence (looked up): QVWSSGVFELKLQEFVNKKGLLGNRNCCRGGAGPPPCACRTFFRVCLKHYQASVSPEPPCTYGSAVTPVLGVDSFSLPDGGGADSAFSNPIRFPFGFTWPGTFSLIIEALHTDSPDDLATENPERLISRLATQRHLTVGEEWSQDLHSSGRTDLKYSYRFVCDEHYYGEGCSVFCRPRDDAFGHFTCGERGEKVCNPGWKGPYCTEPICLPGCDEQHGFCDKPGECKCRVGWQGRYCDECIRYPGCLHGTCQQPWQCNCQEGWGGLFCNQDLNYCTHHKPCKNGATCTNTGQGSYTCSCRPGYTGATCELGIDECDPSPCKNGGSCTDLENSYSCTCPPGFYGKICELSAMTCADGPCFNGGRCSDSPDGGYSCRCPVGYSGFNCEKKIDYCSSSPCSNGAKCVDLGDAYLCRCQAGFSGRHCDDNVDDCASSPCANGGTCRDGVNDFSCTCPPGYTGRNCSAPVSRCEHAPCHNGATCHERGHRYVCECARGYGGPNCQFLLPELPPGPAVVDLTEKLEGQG
Nature of the assay: ELISA, maximum over 0.1-100 nM.

Assay [2] has as its target T5, mouse DLL3 on CHO K1-mDLL3 cells (mouse, UniProt O88516 33-490).
T5 construct: also called mouse DLL3 recombinant cell line
T5 sequence: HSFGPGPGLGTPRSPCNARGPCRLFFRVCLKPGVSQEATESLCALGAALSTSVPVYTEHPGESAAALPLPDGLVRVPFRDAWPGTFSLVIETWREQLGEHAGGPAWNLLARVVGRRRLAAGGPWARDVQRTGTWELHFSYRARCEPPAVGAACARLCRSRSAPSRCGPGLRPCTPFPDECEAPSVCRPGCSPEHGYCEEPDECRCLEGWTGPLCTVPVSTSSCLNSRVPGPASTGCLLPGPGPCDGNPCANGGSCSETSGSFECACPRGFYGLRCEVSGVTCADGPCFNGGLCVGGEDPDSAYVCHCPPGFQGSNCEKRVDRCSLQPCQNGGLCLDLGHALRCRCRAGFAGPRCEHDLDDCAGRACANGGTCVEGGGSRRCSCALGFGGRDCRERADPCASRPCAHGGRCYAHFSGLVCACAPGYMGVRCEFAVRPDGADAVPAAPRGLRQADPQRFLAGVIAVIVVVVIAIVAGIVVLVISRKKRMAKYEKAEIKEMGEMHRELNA
Nature of the assay: FACS, CHO K1-mDLL3 cells. On the technique in general: In flow cytometry, cells or beads pass a laser one at a time.

Assay [3] has as its target T6, human DLL3 on CHO-K1 hDLL3 cells (human, UniProt Q9NYJ7 27-492).
T6 construct: also called human DLL3 recombinant cell line
T6 sequence: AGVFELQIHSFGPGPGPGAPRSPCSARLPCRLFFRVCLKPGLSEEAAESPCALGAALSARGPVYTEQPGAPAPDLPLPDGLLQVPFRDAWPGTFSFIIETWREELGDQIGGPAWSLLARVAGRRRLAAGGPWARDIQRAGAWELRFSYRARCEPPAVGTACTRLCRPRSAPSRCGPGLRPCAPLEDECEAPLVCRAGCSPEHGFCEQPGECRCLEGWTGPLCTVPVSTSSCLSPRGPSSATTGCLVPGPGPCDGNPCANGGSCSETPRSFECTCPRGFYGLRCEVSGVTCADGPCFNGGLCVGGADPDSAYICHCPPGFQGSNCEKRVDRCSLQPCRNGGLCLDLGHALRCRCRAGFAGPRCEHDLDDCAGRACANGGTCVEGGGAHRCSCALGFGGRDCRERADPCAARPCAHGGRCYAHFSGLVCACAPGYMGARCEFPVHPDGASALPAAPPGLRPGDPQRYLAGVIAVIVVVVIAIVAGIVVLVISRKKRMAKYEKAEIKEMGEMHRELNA
Nature of the assay: FACS, CHO-K1 hDLL3 cells.

The target of assay [4] is T7, human DLL3 endogenously expressed on SHP77 and NCI-H82 cells (human, UniProt Q9NYJ7 27-618).
T7 construct: whole, on cells; cells endogenously expressing DLL3; also called SHP77 cells; SHP-77 cells
T7 sequence (looked up): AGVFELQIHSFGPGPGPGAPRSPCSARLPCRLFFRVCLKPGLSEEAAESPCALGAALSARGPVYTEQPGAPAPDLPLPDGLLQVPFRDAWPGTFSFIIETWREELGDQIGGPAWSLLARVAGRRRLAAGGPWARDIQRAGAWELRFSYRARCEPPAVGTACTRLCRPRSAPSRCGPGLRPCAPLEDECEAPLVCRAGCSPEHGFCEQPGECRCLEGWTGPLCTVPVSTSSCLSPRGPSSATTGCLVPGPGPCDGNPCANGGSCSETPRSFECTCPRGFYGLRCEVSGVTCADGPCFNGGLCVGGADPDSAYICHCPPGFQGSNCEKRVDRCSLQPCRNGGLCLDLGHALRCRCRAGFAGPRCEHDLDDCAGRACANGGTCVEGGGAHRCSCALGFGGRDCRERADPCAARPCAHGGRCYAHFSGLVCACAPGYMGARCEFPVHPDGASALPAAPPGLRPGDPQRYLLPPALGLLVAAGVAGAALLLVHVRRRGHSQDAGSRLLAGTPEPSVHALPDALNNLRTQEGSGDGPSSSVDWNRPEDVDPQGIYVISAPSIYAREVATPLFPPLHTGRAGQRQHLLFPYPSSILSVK
Nature of the assay: FACS, SHP77 and NCI-H82 cells.

B1: mab001 scFv-hFc (Fc fusion)
scFv (part 1 of 2): not shown
scFv (part 2 of 2): QIQLVQSGPELKKPGETVKISCKASGYTFTTYGMSWVKQAPGKGLKWMGWINTYSGVPTYADDFKGRFAFSLETSASTAYLQINNLKNEDTATYFCARIGDYDYGEYWGQGTLVTVSA
notes: human-murine chimeric scFv-hFc, VL-linker-VH-human IgG1 Fc; not shown: linker; Fc fragment of human IgG1
For the molecule B1, the binding result (in assay [1]; in the assay with human DLL3-his protein) was “binds” throughout. For the same molecule, the “Emax of OD450 nm binding value” in the assay with human DLL4 protein and with human DLL1 protein was 0.05 OD450 in each case.

B2: Hab008L3H5-hFc (Fc fusion)
scFv (part 1 of 2): DIVMTQSPDSLAVSLGERATINCKASQNVGTAVAWYQQKPGQSPKLLIFSASIRYTGVPDRFSGSGSGTDFTLTISSLQAEDVAVYYCQQYSSSPYTFGGGTKVEIK
scFv (part 2 of 2): EVQLVQSGAEVKKPGASVKVSCKASGYTFTDYYMNWVRRAPGQRLEWMGIINPYNGGTSYNQKFRGRVTITVDKSASTAYMELSSLRSEDTAVYYCSRYDYDYDVEGAMDYWGQGTTVTVSS
notes: humanized mab008, VL-linker-VH-human IgG1 Fc; also called Hab008 humanized molecule; not shown: linker; human IgG1 Fc fragment
As to B2, the binding result in assay [1] was “binds”; in the assay with human DLL3-his protein it was “binds”; in assay [2], “no binding”; in assay [3], “binds”; in assay [4], “binds”.

B3: mab003 scFv-hFc (Fc fusion)
scFv (part 1 of 2): DVQITQSPSYLAASPGETITINCRASKSISKYLAWYQEKPGKTNKLLIYSGSTLHSGIPSRFSGSGSGTDFTLTISSLEPEDFAIYYCQQHNEYPLTFGGGTKLELK
scFv (part 2 of 2): QVQLQQSGTELMKPGASVKLSCKATGYTFTGNWIEWVKQRPGHGLEWIGEILPGTGSTQYNEKFKGKATFTADPSSNTAYMQLSSLTTEDSAIYYCARWGSTVVAYDYWGQGTTLTVSS
notes: as for B1
B3: the binding result (in assay [1]; with human DLL3-his protein) was “binds” throughout. For the same molecule, the results for the “Emax of OD450 nm binding value” with human DLL4 protein and in the assay with human DLL1 protein were 0.05 OD450 and 0.06 OD450, respectively.

B4: mab002 scFv-hFc (Fc fusion)
scFv (part 1 of 2): QIVLTQSPAIMSASPGEKVTMTCSARSSVSYMQWYQQKSGTSPKRWIYDTSKLASGVPARFSGSGSGTSYSLTISTMEAEDAATYYCQQWSSDPPTFGGGTKLEIK
scFv (part 2 of 2): QIQLVQSGPELKKPGETVKISCKASGYTFTNYGMNWLKQAPGKGLKWMGWINTYTGESTYADDFKGRFAFSLETSASTVYLQINNLKNEDMATYFCARMGDGYYDFTMDYWGQGTSVTVSS
notes: as for B1
Consider B4, for which the binding result (in assay [1]; with human DLL3-his protein) was “binds” in each case. For the same molecule, the “Emax of OD450 nm binding value” with human DLL4 protein and with human DLL1 protein was 0.05 OD450 throughout.

B5: mab011 scFv-hFc (Fc fusion)
scFv (part 1 of 2): DIVLTQSPATLSVTPGDSVSLSCRASQSISNNLHWYQQKSHESPRLLIKYASQSISGIPSRFSGSGSGTDFTLSINSVETEDFGMYFCQQSNSWPWTFGGGTKLEIK
scFv (part 2 of 2): EVQLQQSGPELVKPGASVKISCKASGYTFTDYYMNWVKQSHGKSLEWIGDISPNYGGTNYNQKFKGKATLTVDKSSSTACMELRSLTSEDSAVYYCTRSFYYYGTGYDWYFDVWGTGTTVTVSS
notes: as for B1
As to B5, the binding result (in assay [1]; with human DLL3-his protein) was “binds” in each case. The “Emax of OD450 nm binding value” with human DLL4 protein and in the assay with human DLL1 protein was 0.06 OD450 each time.

B6: mab004 scFv-hFc (Fc fusion)
scFv (part 1 of 2): DIVLTQSPASLAVSLGQRATISCRASESVDYDGDSYMNWYQQKPGQPPKLLIYVASNLESGIPARFSGSGSGTDFILNIHPVEEEDAATYYCLQSNEAPYTFGSGTKLEIK
scFv (part 2 of 2): QVQLQQPGAELVKPGASVKLSCKASGYTFTSYWINWVKQRPGQGLEWIGNIYPGSSSPNYNEKFKSKATLTVDTSSSTAYMQLSSLTSDDSAVYYCARSLLYAMDYWGQGTSVTVSS
notes: as for B1
Turning to B6, the binding result (in assay [1]; in the assay with human DLL3-his protein) was “binds” throughout. The figures for the “Emax of OD450 nm binding value” with human DLL4 protein and with human DLL1 protein were 0.04 OD450 and 0.05 OD450, respectively.

B7: mab016 scFv-hFc (Fc fusion)
scFv (part 1 of 2): DIVMTQSQKFMSTTIGDRVSITCKASQNVGTTVAWYQQKPGQSPNLLLYSTSNRFTGVPDRFTGSGSGTDFTLTITNMQSEDLADYFCQQYNNYPLTFGGGTKLEIK
scFv (part 2 of 2): EVNLEESGGGLVQPGGSMKLSCVASGFAFSNFWMQWVRQSPEKGLEWVAQIRLKSDNYAAHYAESVKGRFTISRDDSKSSVYLQLNNLRAEDTGTYYCTQGNWVGFAYWGQGTLVTVSA
notes: as for B1
With B7, the binding result (in assay [1]; in the assay with human DLL3-his protein) was “binds” throughout. For the same molecule, the “Emax of OD450 nm binding value” with human DLL4 protein was determined as 0.04 OD450; in the assay with human DLL1 protein, 0.05 OD450.
